The record followed here is paper PMC8860596 (Nucleic Acids Research, 2021).

The target of data set [1] is T1, CreYin;CreYang (P1 phage;P1 phage, UniProt P06956;P06956 1-343;1-343, D33A;A36V;R192A|R72E;L115D;R119D). As to the kind of experiment: EMSA. A general note: Mobility shift assays separate free from complexed probe on a gel.
The target in data set [2] is T2, CreYin (P1 phage, UniProt P06956 1-343, D33A;A36V;R192A). Put plainly: EMSA.
Data set [3] addresses T3, CreYang (P1 phage, UniProt P06956 1-343, R72E;L115D;R119D). Put plainly: EMSA.
Data set [4] concerns the target T4, Cre K201A (P1 phage, UniProt P06956 1-343, K201A). As to the kind of experiment: EMSA.
A further data set concerns the target Cre deltaN (CreΔαN) (P1 phage, UniProt P06956 1-330). Put plainly: EMSA.
The data set “native gel or EMSA” deals with the molecule itself. As to the kind of experiment: native gel or EMSA.
The target of data set [5] is T1, CreYin;CreYang. Put plainly: cryo-EM.
The target in data set [6] is T4, Cre K201A. Put plainly: cryo-EM.
The target in data set [7] is T1, CreYin;CreYang. Put plainly: native MS.
Data set [8] deals with T3, CreYang. As to the kind of experiment: native MS.
Data set [9] deals with T2, CreYin. Put plainly: native MS.
The target in data set [10] is T2, CreYin. Put plainly: cryo-EM.

B1: loxP-54 (dsDNA)
DNA 1: CGAGTGGCCGATAACTTCGTATAATGTATGCTATACGAAGTTATGCGGCGTGAC
DNA 2: GTCACGCCGCATAACTTCGTATAGCATACATTATACGAAGTTATCGGCCACTCG
Take B1: the binding result with CreYin;CreYang [1], with CreYin [2], with CreYang [3], with Cre K201A [4] and with Cre deltaN (CreΔαN) was “binds” in each case.

B2: Cre recombinase K201A (cleavage-deficient variant) (enzyme, P1 phage)
chain: MSNLLTVHQNLPALPVDATSDEVRKNLMDMFRDRQAFSEHTWKMLLSVCRSWAAWCKLNNRKWFPAEPEDVRDYLLYLQARGLAVKTIQQHLGQLNMLHRRSGLPRPSDSNAVSLVMRRIRKENVDAGERAKQALAFERTDFDQVRSLMENSDRCQDIRNLAFLGIAYNTLLRIAEIARIRVKDISRTDGGRMLIHIGRTATLVSTAGVEKALSLGVTKLVERWISVSGVADDPNNYLFCRVRKNGVAAPSATSQLSTRALEGIFEATHRLIYGAKDDSGQRYLAWSGHSARVGAARDMARAGVSIPEIMQAGGWTNVNIVMNYIRNLDSETGAMVRLLEDGD
Take B2: in the data set “native gel or EMSA”, the stoichiometry N (as a rule, a count of units in the complex or per binding partner) is 4.

B3: loxP-44 (dsDNA)
DNA 1: CGGCGATAACTTCGTATAATGTATGCTATACGAAGTTATGCGGC
DNA 2: GCCGCATAACTTCGTATAGCATACATTATACGAAGTTATCGCCG
As to B3, the binding result with CreYin;CreYang [5] and in the data set with Cre K201A [6] was “binds” each time.

B4: loxP-38 (dsDNA)
DNA 1: CGATAACTTCGTATAATGTATGCTATACGAAGTTATGC
DNA 2: GCATAACTTCGTATAGCATACATTATACGAAGTTATCG
Take B4: the binding result with CreYin;CreYang [7], with CreYang [8] and in the data set with CreYin [9] was “binds” throughout.

With GCATAACTTCGTATAGCATATGCGAAGCATATGCTATACGAAGTTATGC (structured_DNA) [loxA hairpin], the binding result in the data set with CreYin [10] was “binds”.
